Laboratory results as given in patent publication US20130029913A1, “ARTIFICIAL PLATELETS” (priority 2005, published 2013).
Values belong to the molecule of their own block, whether it stands above or below them. Primed or numbered codes have the meaning given here. No end group written: not given here. MAL″ = maleimide moiety on the C-terminal lysine; MAL = maleimide moiety

Columns and labels:
Fibrinogen [1] = molecular target: T1, Fibrinogen (Homo sapiens, UniProt P02679); test: Binding of fibrinogen to peptide-linked microspheres in absence and presence of thrombin (flow cytometry)
Procedure: Peptide A linked microspheres, and Peptide B linked microspheres were prepared as described in Example 2, and were mixed for 30 minutes with buffer or thrombin as shown in the table below:
The microspheres were then recovered by centrifuging at 1800 g for 10 minutes. The microspheres were resuspended in 100 μl Tris to give a final concentration of 5 mg/ml. 10 μl of Hirudin 100 U/ml was added to inhibit residual thrombin.
180 μl Fibrinogen at a concentration 0.1 mg/ml was added to 20 μl of Peptide A or Peptide B linked microspheres and mixed for 1 hr.
Fibrinogen binding was measured as follows. 5 μl microspheres were added to 50 μl HEPES buffer pH […] FITC labelled antibody to human fibrinogen was added and mixed for 20 minutes. The reaction was stopped with addition of 0.2% Formyl saline. Bound fluorescence was measured using a Beckman Coulter XL MCL Flow Cytometer.

Thrombocytopenic blood = test: Platelet aggregation in thrombocytopenic blood activated by ADP (impedance aggregometer); assay type: cell-based; conditions: microparticles pre-exposed to thrombin, 6 min
Procedure: Platelet aggregation in the presence of peptide C modified microparticles was measured using a Multiplatelet impedance aggregometer (Multiplate® Dynabyte medical, Munich).
Peptide C modified microparticles were prepared as described in Example 5 at a stock concentration of 2.5 mg/ml in HBS. The microparticles (0.75 mg) were pre-incubated for 1 h with 1 U/ml human thrombin (Sigma) in HBS (total volume 0.3 ml). To inhibit thrombin activity hirudin (Sigma) was added at a final concentration of 5 U/ml. The reaction was centrifuged at 9300 g for 5 min and the supernatant was discarded. The microparticles were resuspended in HBS to a concentration of 2.5 mg/ml.
Thrombocytopenic blood was prepared from citrated blood as follows:
Platelets were removed by centrifuging whole blood at 163 g for 20 min and discarding the platelet rich upper layer. The upper platelet rich layer was replaced by plasma that was isolated as the supernatant after centrifuging whole blood at 1800 g for 30 min.
To monitor electrical impedance; to each electrode well 0.3 ml of blood was incubated at 37° C. with microparticles (0.15 mg) and saline to give a total volume of 0.6 ml. Aggregation was recorded immediately after the addition of 30 μl of activator adenosine diphosphate solution (0.1 mM). Aggregation was recorded for 6 min; results in FIG. 9 are expressed in arbitrary units of final aggregation.

Fibrinogen [2] = molecular target: T1, Fibrinogen; test: Fibrinogen binding to microparticles after incubation with or without thrombin (flow cytometry); parameters: purchased Scottish National Blood Transfusion Service (SNBTS)
Procedure: (§1) Microparticles were mixed with fibrinogen solution after exposure to thrombin to confirm that fibrinogen-binding sequence is exposed by thrombin.
(§2) Microparticles at 0.7, 5 or 10 mg/ml were incubated with 0-0.64 U/mL thrombin at 37° C. after 2 min the thrombin was inhibited by the addition of hirudin (Sigma) at a final concentration of 10 U/mL. Microparticles were centrifuged at 9300 g for 5 min and resuspended in HBS to give 14 mg/mL. The microparticles were diluted 10-fold in 0.1 mg/mL human fibrinogen (Scottish National Blood Transfusion Service: SNBTS) and incubated at room temperature for 1 h. The amount of fibrinogen bound was determined by flow cytometry with a polyclonal antibody rabbit-anti-human fibrinogen-FITC (Dako Cytomation).

plasma [3] = test: Clot formation in plasma in response to thrombin (turbidimetric, PAP-4); assay type: biochemical
Procedure: Microparticle clot formation in plasma was determined turbidimetrically using the Platelet Aggregation Profiler® PAP-4 (BioData Corporation, PA) as described above.
(§3) Peptide C modified microparticles were prepared as described in Example 5 at a stock concentration of 2.5 mg/ml in HBS. The baseline optical density was set with plasma, which had been prepared from citrated blood. Plasma samples (205 μl) were pre-warmed to 37° C. for 1 min before the addition of microparticles (25 μl), with the stir bar rate set at 900 rpm. After two minutes 20 uL of human thrombin (Sigma) stock solution was added to the reaction to give a final thrombin concentration of 0.25 U/ml.

Fibrinogen [4] = molecular target: T1, Fibrinogen; test: Clot formation in fibrinogen in response to thrombin (turbidity, PAP-4); assay type: biochemical; parameters: purchased SNBTS
Procedure: Clot formation was determined by a […] in turbidity using the Platelet Aggregation Profiler® PAP-4 (BioData Corporation, PA) as follows; Peptide C linked microparticles were prepared as described in Example 5 at a stock concentration of 2.5 mg/ml in Hepes buffered saline (HBS). The baseline optical density was set with fibrinogen (SNBTS) solution at 3 mg/ml in HBS. Fibrinogen solutions (205 μl) were pre-warmed to 37° C. for 1 min before the addition of microparticles (25 μl), with the stir bar rate set at 900 rpm. After two min 20 μL of human thrombin (Sigma) stock solution was added to give a final concentration of 0.032 U/ml.

plasma [5] = test: Clot formation in plasma after microparticles pre-incubated with thrombin (turbidimetric, PAP-4); assay type: biochemical
Procedure: Clot formation as monitored in plasma with peptide C modified microparticles that had been pre-exposed to thrombin in a buffer. Microparticle clot formation in plasma was determined turbidimetrically using the Platelet Aggregation Profiler® PAP-4 (BioData Corporation, PA) as described above.
as §3, with “HBS. Peptide C modified microparticles were pre-incubated with 0.6 U/ml thrombin for 1 h and then hirudin (10 U/ml) was added to inhibit thrombin activity. The reactions were centrifuged at 9300 g for 5 min then resuspended in HBS at 2.5 mg/ml.” for “HBS.”, “of” for “of human”, “thrombin” for “thrombin (Sigma)”

[6] = molecular target: T2, human fibrinogen (Scottish National Blood Transfusion Service: SNBTS) (human, UniProt P02671 20-629; P02675 31-491; P02679 27-437, limits assumed); test: flow cytometry with rabbit anti-human fibrinogen-FITC on microparticles
T2 sequence (looked up) 1: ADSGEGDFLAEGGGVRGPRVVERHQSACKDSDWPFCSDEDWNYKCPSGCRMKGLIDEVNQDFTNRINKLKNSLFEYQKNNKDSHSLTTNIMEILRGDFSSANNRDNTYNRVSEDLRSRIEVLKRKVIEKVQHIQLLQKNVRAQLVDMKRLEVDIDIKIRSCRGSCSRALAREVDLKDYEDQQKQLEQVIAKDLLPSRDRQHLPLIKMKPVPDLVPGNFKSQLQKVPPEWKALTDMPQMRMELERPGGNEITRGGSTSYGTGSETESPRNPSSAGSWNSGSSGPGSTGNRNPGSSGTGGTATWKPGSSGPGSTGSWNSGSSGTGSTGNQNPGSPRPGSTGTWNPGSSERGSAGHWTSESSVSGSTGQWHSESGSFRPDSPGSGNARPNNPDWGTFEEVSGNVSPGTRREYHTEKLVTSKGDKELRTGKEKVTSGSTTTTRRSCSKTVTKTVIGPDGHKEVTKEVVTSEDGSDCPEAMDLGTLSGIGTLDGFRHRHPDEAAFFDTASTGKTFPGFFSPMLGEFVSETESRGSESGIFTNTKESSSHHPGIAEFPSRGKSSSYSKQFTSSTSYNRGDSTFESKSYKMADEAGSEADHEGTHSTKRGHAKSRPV
T2 sequence (looked up) 2: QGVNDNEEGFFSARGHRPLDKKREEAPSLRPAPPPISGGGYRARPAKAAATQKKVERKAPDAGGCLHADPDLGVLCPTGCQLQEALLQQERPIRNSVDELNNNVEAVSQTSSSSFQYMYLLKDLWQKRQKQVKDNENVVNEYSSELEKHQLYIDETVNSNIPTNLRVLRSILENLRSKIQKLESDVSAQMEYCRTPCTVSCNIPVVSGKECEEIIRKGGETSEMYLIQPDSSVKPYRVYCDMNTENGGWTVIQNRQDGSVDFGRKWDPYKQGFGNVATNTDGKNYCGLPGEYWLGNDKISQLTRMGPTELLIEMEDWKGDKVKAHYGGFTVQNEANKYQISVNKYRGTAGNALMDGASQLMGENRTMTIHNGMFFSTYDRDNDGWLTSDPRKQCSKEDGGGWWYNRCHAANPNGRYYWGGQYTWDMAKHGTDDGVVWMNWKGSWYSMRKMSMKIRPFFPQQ
T2 sequence (looked up) 3: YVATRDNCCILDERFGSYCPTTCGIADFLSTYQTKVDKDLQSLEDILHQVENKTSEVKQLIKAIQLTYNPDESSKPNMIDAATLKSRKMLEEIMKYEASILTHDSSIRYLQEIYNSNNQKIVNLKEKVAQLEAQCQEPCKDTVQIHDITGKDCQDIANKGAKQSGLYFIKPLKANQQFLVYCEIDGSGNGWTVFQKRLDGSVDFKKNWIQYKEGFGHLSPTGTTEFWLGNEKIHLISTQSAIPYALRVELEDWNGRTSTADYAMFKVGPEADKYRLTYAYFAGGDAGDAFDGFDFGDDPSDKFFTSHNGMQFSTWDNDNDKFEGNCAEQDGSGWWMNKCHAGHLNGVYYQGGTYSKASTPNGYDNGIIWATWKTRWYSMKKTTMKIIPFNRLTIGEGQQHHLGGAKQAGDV
Procedure: as §1, §2

T1 sequence (P02671 20-644 isoform P02671-2 partner limits assumed, one chain of several): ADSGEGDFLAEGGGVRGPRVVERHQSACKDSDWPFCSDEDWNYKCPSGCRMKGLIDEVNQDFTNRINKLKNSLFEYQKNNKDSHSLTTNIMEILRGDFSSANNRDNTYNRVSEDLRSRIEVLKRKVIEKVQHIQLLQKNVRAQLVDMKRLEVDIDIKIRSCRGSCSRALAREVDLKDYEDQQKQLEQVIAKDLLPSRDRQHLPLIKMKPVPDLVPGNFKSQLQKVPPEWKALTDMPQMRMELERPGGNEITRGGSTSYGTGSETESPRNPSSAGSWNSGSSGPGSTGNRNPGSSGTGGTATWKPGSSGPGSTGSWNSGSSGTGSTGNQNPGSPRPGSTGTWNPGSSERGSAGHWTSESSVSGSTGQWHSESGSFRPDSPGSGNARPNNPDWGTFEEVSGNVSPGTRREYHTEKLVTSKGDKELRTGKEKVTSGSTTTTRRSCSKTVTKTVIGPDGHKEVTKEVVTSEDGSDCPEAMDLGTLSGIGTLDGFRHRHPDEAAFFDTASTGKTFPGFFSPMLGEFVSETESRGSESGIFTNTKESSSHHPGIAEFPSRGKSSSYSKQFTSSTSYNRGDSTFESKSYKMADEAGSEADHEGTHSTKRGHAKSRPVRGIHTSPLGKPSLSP

fibrinogen binding (in words) (Fibrinogen [1]; absence of thrombin): bound fibrinogen
fibrinogen binding (in words) (Fibrinogen [1]; presence of thrombin): bound fibrinogen
Molecule: H2N-GPRPG^6C (H-GPRPGGGGGGC; also: cross-linked to human albumin microspheres) [Peptide B, reference compound]

amount of fibrinogen bound to microparticles (Fibrinogen [2]; increasing thrombin concentration (0-0.64 U/mL), all three microparticle concentrations): increased
fibrinogen binding (in words) (Fibrinogen [2]; without thrombin, microparticles 0.7, 5 or 10 mg/ml): do not bind fibrinogen
Molecule: H2N-LVPRGPRPG^5K-MAL (H-LVPRGPRPGGGGGK-{MAL}; also: MAL maleimide linked to human albumin microparticles) [peptide C]
electrical impedance (final aggregation) vs TCB without microparticles or blank microparticles (Thrombocytopenic blood): greater electrical impedance
clot formation in plasma vs unmodified control blank microparticles (plasma [3]; thrombin 0.25 U/ml added at the 2 min time point): accelerated clot formation
clot formation in plasma (plasma [3]; without the addition of thrombin): did not form a clot
clot formation in fibrinogen solution (Fibrinogen [4]; absence of thrombin, fibrinogen 3 mg/ml): neither blank nor microparticles modified with peptide C formed a clot
turbidity decrease (clot formation) vs control unmodified microparticles (Fibrinogen [4]; thrombin 0.032 U/ml added at 2 min): decreased more rapidly
clot formation in plasma (plasma [5]; exposed to thrombin both before (0.6 U/ml, 1 h) and during (0.25 U/ml) incubation with plasma): clot formation occurs
clot formation in plasma (plasma [5]; without thrombin exposure, over the 20 min period): did not result in clot formation

The next lines start with the molecule.

Molecule: H2N-LVPRGPRPG^6C (H-LVPRGPRPGGGGGGC; also: cross-linked to human albumin microspheres) [Peptide A]
microspheres that bound fibrinogen (Fibrinogen [1]; first incubated with thrombin (0.16 U/ml, 30 minutes), then mixed with fibrinogen): 86%
microspheres that bound fibrinogen (Fibrinogen [1]; not previously incubated with thrombin, fibrinogen 0.1 mg/ml, 1 hr): 6%

B1: Peptide C (H2N-LVPRGPRPG5K-MAL), fibrinogen binding precursor peptide linked to human albumin microparticles, not exposed to thrombin (peptide)
peptide: H-LVPRGPRPGGGGGK(MAL″)
modifications: also: thioether-linked via maleimide to albumin microparticle sulphydryl
notes: Synthetic peptide immobilised on microparticles of human serum albumin; tested as the intact precursor; also called peptide C modified microparticles; microparticles modified with peptide C
binding result [6]: no binding (tested: 0.1 mg/mL human fibrinogen)
